The target in the assay is Ribonuclease A (Type II-A) from bovine pancreas (bovine) (UniProt P61823). The experiment in a line: cell-based or functional assay.
Chain of Ribonuclease A (Type II-A) from bovine pancreas (bovine) (P61823 27-150): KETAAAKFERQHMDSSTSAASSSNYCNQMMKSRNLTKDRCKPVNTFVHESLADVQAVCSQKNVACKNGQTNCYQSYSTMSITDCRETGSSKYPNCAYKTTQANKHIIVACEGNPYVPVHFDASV

As to “RNaseOUT recombinant ribonuclease inhibitor”, the IC50 for RNase A activity inhibition, HeLa total RNA cleavage, agarose gel image came out at 381 nM; the inhibition level, RNA probe assay (fluorophore and quencher), inhibitor at 1 µM came out at 27.2%.

In turn, Biofact RNase inhibitor gave an IC50 for RNase A activity inhibition, HeLa total RNA cleavage, agarose gel image of 257 nM; an inhibition level, RNA probe assay (fluorophore and quencher), inhibitor at 1 µM of 35.8%.

Values taken from US20260217863A1, “ANTIBODY OR PEPTIDE BINDING SPECIFICALLY TO RNASE A, IMMUNOASSAY DEVICE AND METHOD FOR DETECTING RNASE A, AND METHOD FOR COLLECTING RNASE A” (UIF (University Industry Foundation), Yonsei University, priority 2022, published 2026).
